Assay [1] deals with T1, human sodium-dependent phosphate transporter 2B (NaPi2b) (human, UniProt O95436 1-690).
T1 construct: UniProt ID is given as 095436 [sic]; also called hNaPi2b; Hu NaPi2b
T1 sequence: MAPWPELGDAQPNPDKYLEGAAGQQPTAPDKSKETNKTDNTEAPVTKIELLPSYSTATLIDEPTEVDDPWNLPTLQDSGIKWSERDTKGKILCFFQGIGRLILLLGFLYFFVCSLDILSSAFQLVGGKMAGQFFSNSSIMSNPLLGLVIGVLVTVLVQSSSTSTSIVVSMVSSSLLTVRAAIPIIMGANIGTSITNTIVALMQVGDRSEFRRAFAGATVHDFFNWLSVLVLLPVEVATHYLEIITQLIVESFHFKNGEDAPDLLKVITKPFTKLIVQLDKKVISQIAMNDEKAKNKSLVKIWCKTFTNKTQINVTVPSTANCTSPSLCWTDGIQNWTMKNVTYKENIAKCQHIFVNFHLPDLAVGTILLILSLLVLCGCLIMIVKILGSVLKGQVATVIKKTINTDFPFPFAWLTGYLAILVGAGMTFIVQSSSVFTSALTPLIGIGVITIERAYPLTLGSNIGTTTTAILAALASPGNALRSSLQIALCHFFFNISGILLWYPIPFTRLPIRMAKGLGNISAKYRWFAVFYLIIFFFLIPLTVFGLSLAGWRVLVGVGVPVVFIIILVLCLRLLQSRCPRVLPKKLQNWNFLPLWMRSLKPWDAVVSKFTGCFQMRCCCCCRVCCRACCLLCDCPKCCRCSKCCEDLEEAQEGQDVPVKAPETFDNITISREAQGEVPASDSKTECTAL
As to the kind of experiment: flow cytometry, HCC-78 cells (endogenous NaPi2b). Here is the method: (§1) Briefly, HEK293-6e cells were transfected for ˜24 hours to transiently express human NaPi2b, cynomolgus or mouse NaPi2b, at 1 μg of DNA per 1 million cells. Following transfection, 50,000 cells per well were seeded in V-bottom 96-well plates and incubated with 200 nM of primary antibody for 18-24 hours at 4° C. to prevent internalization. Post-incubation, cells were washed and stained with anti-Human IgG Fc AF647 conjugate (Jackson Immuno Research Labs, West Grove, PA, Cat. No. 109-605-098, Lot. No. 124868) at 4° C. for 1 hour. Following staining and washing, fluorescence was detected by flow cytometry on BD LSRFortessa™ Cell Analyzer (BD Biosciences, Franklin Lake, NJ) with 10,000 minimum events collected per well. The AF647/APC-A GeoMean (fluorescence signal geometric mean, proportional to anti-Human AF647 binding) was calculated for the live singlet cell population for each primary antibody using FlowJo™ v8 software (BD Biosciences, Franklin Lake, NJ). The Bmax and Kd of each primary antibody were calculated using GraphPad Prism Version 9 (GraphPad Software, San Diego, CA)
The ability of ADCs to bind to cells expressing NaPi2b was assessed. […] Binding to endogenous high NaPi2b-expressing cell lines IGROV-1 and HCC-78 was assessed by flow cytometry according to methods described in Example 5.
(In general: In flow cytometry, cells or beads pass a laser one at a time.)

For assay [2], the target named is T2, cynomolgus monkey NaPi2b (cynomolgus monkey, UniProt O95436 1-690 (human entry)).
T2 construct: Transiently expressed on HEK293-6e cells; also called Cyno NaPi2b
T2 chain: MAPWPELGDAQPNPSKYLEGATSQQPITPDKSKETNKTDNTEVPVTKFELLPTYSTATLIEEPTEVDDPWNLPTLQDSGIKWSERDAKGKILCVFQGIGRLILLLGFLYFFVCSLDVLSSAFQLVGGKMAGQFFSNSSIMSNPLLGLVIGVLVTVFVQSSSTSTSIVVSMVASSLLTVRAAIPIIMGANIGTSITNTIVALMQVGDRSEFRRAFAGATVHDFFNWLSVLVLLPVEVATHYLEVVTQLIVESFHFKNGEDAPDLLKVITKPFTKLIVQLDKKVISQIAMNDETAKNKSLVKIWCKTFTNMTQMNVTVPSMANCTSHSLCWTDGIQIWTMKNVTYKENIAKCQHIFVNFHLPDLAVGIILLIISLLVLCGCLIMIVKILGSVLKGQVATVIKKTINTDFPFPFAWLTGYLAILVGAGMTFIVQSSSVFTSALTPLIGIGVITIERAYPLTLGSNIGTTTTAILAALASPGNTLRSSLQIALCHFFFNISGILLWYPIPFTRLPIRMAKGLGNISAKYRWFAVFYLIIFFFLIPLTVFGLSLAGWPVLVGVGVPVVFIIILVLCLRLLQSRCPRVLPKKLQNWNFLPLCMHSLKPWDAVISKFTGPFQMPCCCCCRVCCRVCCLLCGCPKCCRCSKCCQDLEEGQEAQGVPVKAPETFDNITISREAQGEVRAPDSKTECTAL
As to the kind of experiment: flow cytometry, HEK293-6e cells transfected with cynomolgus NaPi2b. The method, then: (§2) The binding cross-reactivity of humanized antibody variant v29456 to human, cynomolgus and mouse NaPi2b was assessed by flow cytometry using HEK293-6e transfected cells.
as §1

For assay [3], the target named is T1, human sodium-dependent phosphate …. As to the kind of experiment: flow cytometry, IGROV-1 cells (endogenous NaPi2b), 24 h at 4 °C; apparent Kd. The procedure, abridged:
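IGROV-1 cells were incubated with test antibody for 24 hours at 4° C to prevent internalization, then stained with anti-human IgG Fc AF647 for 30 min at 4° C. AF647 geometric mean fluorescence of live cells was measured by flow cytometry and plotted per antibody.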

Assay [4] deals with T2, cynomolgus monkey NaPi2b. As to the kind of experiment: flow cytometry, HEK293-6e cells transfected with cynomolgus NaPi2b; apparent Kd. The method, then:
as §2, §1

B1: v29456 humanized anti-NaPi2b antibody (H1L2) (antibody, human IgG1, kappa)
heavy: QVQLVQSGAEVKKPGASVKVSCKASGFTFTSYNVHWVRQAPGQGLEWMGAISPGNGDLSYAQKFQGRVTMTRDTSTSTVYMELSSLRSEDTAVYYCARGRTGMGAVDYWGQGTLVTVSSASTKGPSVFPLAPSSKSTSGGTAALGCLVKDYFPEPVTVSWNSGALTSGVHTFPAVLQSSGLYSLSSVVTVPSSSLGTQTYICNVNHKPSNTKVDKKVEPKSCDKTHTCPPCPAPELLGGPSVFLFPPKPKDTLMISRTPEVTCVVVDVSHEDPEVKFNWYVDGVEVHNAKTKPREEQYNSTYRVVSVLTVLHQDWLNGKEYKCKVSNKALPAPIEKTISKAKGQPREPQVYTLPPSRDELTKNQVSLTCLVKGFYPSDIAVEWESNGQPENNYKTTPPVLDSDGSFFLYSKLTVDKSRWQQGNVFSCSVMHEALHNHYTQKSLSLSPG
light: DVQMTQSPSSLSASVGDRVTITCRASQDVYSYLNWYQQKPGKAVKLLIYYTSRLQSGVPSRFSGSGSGTDYTLTISSLQPEDFATYYCQQYNIFPWTFGQGTKLEIKRTVAAPSVFIFPPSDEQLKSGTASVVCLLNNFYPREAKVQWKVDNALQSGNSQESVTEQDSKDSTYSLSSTLTLSKADYEKHKVYACEVTHQGLSSPVTKSFNRGEC
Molecule B1 yielded a Bmax in assay [1] of 21800. For the same molecule, in the assay with cynomolgus monkey NaPi2b [2], the “Bmax (APC-A GeoMean)” value came to 2010 APC-A GeoMean, the “fold lower apparent Kd than v18992 (MX35)” value was found to be 10 fold and the “fold lower apparent Kd than v18993 (lifastuzumab)” value was determined as 2 fold. For the same molecule, the Kd in assay [3] turned out to be 1.1 nM. In addition, in the assay with cynomolgus monkey NaPi2b [4], the Kd worked out at 3.2 nM.

Values taken from patent US20250277030A1 (Zymeworks, published 2025).
